Values of other authors in paper PMC9152818.
Where two headings read alike, the source gives them in different places.

Assays:
[1] = biological target: spike protein CendR peptide CendR peptide (SARS-CoV-2) (UniProt P0DTC2)
[2] = biological target: spike protein RBD (SARS-CoV-2) (UniProt P0DTC2)
[3] = biological target: spike protein RBD (SARS-CoV-2) (UniProt P0DTC2); remark: listed apart in the source
[4] = biological target: spike protein RBD (SARS-CoV-2) (UniProt P0DTC2); remark: listed apart in the source
[5] = biological target: spike protein (SARS-CoV-2) (UniProt P0DTC2)

## Neuropilin-1 (from UniProt O14786)
[1]
  Kd: 20 µM

## soluble trimeric ACE2 (from UniProt Q9BYF1)
[2]
  Kd: < 0.001 µM

## Kremen1 (from UniProt Q96MU8)
[3]
  Kd: 0.02 µM

## ASGR1 (from UniProt P07306)
[4]
  Kd: 0.095 µM

## AXL (from UniProt P30530)
[5]
  Kd: 1 µM
